Data from patent publication US20230295297A1.

Key:
[1] = biological target: TREM2 protein of the 'Percent APOE binding' column of Table 9B; test: TREM2 binding to APOE with antibody
[2] = biological target: mouse TREM2 on cells (mouse) (UniProt Q99NH8); test: FACS, WT mouse macrophages
[3] = biological target: TREM2 protein of the 'Percent APOE binding' column of Table 9B; test: TREM2 binding to APOE with isotype control
[4] = biological target: human TREM2 on primary cells (human) (UniProt Q9NZC2); test: FACS, primary hMAC; isotype control
[5] = biological target: mouse TREM2 on cells (mouse) (UniProt Q99NH8); test: FACS, WT mouse macrophages; isotype control
[6] = biological target: human TREM2 on primary cells (human) (UniProt Q9NZC2); test: FACS, primary hDC; isotype control
[7] = biological target: recombinant human TREM2-DAP12 fusion protein expressed on cells (human); test: FACS, HEKhT2 cells; isotype control
[8] = biological target: mouse TREM2 on cells (mouse) (UniProt Q99NH8); test: FACS, BWZmT2 cells; isotype control

Sequence of mouse TREM2 on cells (mouse) (Q99NH8 19-227 limits assumed): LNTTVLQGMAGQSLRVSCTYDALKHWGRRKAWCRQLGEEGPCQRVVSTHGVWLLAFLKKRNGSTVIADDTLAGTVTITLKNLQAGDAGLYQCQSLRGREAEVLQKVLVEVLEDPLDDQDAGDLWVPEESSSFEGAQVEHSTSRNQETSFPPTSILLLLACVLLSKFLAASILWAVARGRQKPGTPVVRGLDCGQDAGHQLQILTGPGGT
Sequence of human TREM2 on primary cells (human) (Q9NZC2 19-230): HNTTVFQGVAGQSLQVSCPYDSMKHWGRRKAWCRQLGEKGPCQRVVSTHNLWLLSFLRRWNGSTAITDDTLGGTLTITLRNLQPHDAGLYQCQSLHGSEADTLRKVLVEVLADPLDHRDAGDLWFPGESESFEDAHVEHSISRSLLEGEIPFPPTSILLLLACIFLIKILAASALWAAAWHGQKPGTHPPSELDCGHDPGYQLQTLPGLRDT
Sequence of recombinant human TREM2-DAP12 fusion protein expressed on cells (human) (chain, as listed by the source limits assumed, form in doubt): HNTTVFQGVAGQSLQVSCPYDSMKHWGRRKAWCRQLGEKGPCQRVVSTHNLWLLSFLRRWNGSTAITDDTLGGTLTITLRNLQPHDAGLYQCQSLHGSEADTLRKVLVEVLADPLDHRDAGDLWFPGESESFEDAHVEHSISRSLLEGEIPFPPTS

Substance	Percent APOE binding [1] [%]	% Positive WT BMMACS [2] [%]	Percent APOE binding [3] [%]	% Positive hMAC [4] [%]	% Positive WT BMMACS [5] [%]	% Positive hDC [6] [%]	MFI HEKhT2 [7] [MFI]	MFI BWZmT2 [8] [MFI]
commercial anti-TREM2 antibody (R&D Cat #F7E57291)	106	13.1						
mouse IgG1 isotype control antibody			90.8	2.7	0.574	4.9	16.3	278
mouse IgG2a isotype control antibody				7.9		7.3	40.3	
mouse IgG2b isotype control antibody				5.3		6.1	13	
mouse IgM isotype control antibody				63.7		14.9	124	
rat IgG1 isotype control antibody				19.6		8.7	544	
rat IgG2a isotype control antibody				10.4		6.2	33	
rat IgG2b isotype control antibody			102	0.9		0.3	35	
